Assay results published in patent US7410949 (Hoffmann-La Roche, dated 2008).
*1 amine or outer side, *2 acyl side, *3 side chain or, on linkers, in order; H or OH if unused. [ ]: non-standard residue; d: D form. Pqa = N-piperazin-1-yl-4(3H)-quinazolinone-3-acetic acid, O=C(Cn1cnc2ccc(N3CCN([*:1])CC3)cc2c1=O)[*:2]; Bip = N[C@@H](Cc1ccc(-c2ccccc2)cc1)C(=O)O; Dip = N[C@H](C(=O)O)C(c1ccccc1)c1ccccc1; 1Nal = N[C@@H](Cc1cccc2ccccc12)C(=O)O; 2Nal = N[C@@H](Cc1ccc2ccccc2c1)C(=O)O; Nle = CCCC[C@H](N)C(=O)O

Biological target: Y4R
Assay: cell-based or functional assay

Row | Binder | Y4R EC50(nM) FLIPR
1 | Ac-I[Nle][Pqa]RH[2Nal]LNLVTRQRY-NH2 (SMILES CCCC[C@H](NC(=O)[C@@H](NC(C)=O)[C@@H](C)CC)C(=O)N1CCN(c2ccc3ncn(CC(=O)N[C@@H](CCCNC(=N)N)C(=O)N[C@@H](Cc4c[nH]cn4)C(=O)N[C@@H](Cc4ccc5ccccc5c4)C(=O)N[C@@H](CC(C)C)C(=O)N[C@@H](CC(N)=O)C(=O)N[C@@H](CC(C)C)C(=O)N[C@H](C(=O)N[C@H](C(=O)N[C@@H](CCCNC(=N)N)C(=O)N[C@@H](CCC(N)=O)C(=O)N[C@@H](CCCNC(=N)N)C(=O)N[C@@H](Cc4ccc(O)cc4)C(N)=O)[C@@H](C)O)C(C)C)c(=O)c3c2)CC1) [Ac-Ile-Nle-Pqa-Arg-His-(2)Nal-Leu-Asn-Leu-Val-Thr-Arg-Gln-Arg-Tyr-NH2] | > 5000 nM
2 | IKRHYLNLVTRQRY ((D)Arg at PYY position 25 (residue 1 of the second part); Pqa moiety between the two parts; C-terminal amide) [H-Ile-Lys-Pqa-(D)Arg-His-Tyr-Leu-Asn-Leu-Val-Thr-Arg-Gln-Arg-Tyr-NH2] | > 5000 nM
3 | Ac-I[Nle][Pqa]RH[1Nal]LNLVTRQRY-NH2 (SMILES CCCC[C@H](NC(=O)[C@@H](NC(C)=O)[C@@H](C)CC)C(=O)N1CCN(c2ccc3ncn(CC(=O)N[C@@H](CCCNC(=N)N)C(=O)N[C@@H](Cc4c[nH]cn4)C(=O)N[C@@H](Cc4cccc5ccccc45)C(=O)N[C@@H](CC(C)C)C(=O)N[C@@H](CC(N)=O)C(=O)N[C@@H](CC(C)C)C(=O)N[C@H](C(=O)N[C@H](C(=O)N[C@@H](CCCNC(=N)N)C(=O)N[C@@H](CCC(N)=O)C(=O)N[C@@H](CCCNC(=N)N)C(=O)N[C@@H](Cc4ccc(O)cc4)C(N)=O)[C@@H](C)O)C(C)C)c(=O)c3c2)CC1) [Ac-Ile-Nle-Pqa-Arg-His-(1)Nal-Leu-Asn-Leu-Val-Thr-Arg-Gln-Arg-Tyr-NH2] | > 5000 nM
4 | IKRHYLNLVTRQRY (N-methyl Arg at PYY position 25 (residue 1 of the second part); Pqa moiety between the two parts; C-terminal amide) [H-Ile-Lys-Pqa-(NMe)Arg-His-Tyr-Leu-Asn-Leu-Val-Thr-Arg-Gln-Arg-Tyr-NH2] | > 5000 nM
5 | Ac-I[Nle][Pqa]RH[Dip]LNLVTRQRY-NH2 (SMILES CCCC[C@H](NC(=O)[C@@H](NC(C)=O)[C@@H](C)CC)C(=O)N1CCN(c2ccc3ncn(CC(=O)N[C@@H](CCCNC(=N)N)C(=O)N[C@@H](Cc4c[nH]cn4)C(=O)N[C@H](C(=O)N[C@@H](CC(C)C)C(=O)N[C@@H](CC(N)=O)C(=O)N[C@@H](CC(C)C)C(=O)N[C@H](C(=O)N[C@H](C(=O)N[C@@H](CCCNC(=N)N)C(=O)N[C@@H](CCC(N)=O)C(=O)N[C@@H](CCCNC(=N)N)C(=O)N[C@@H](Cc4ccc(O)cc4)C(N)=O)[C@@H](C)O)C(C)C)C(c4ccccc4)c4ccccc4)c(=O)c3c2)CC1) [Ac-Ile-Nle-Pqa-Arg-His-Dip-Leu-Asn-Leu-Val-Thr-Arg-Gln-Arg-Tyr-NH2] | > 5000 nM
6 | Ac-I[Nle][Pqa]RH[Bip]LNLVTRQRY-NH2 (SMILES CCCC[C@H](NC(=O)[C@@H](NC(C)=O)[C@@H](C)CC)C(=O)N1CCN(c2ccc3ncn(CC(=O)N[C@@H](CCCNC(=N)N)C(=O)N[C@@H](Cc4c[nH]cn4)C(=O)N[C@@H](Cc4ccc(-c5ccccc5)cc4)C(=O)N[C@@H](CC(C)C)C(=O)N[C@@H](CC(N)=O)C(=O)N[C@@H](CC(C)C)C(=O)N[C@H](C(=O)N[C@H](C(=O)N[C@@H](CCCNC(=N)N)C(=O)N[C@@H](CCC(N)=O)C(=O)N[C@@H](CCCNC(=N)N)C(=O)N[C@@H](Cc4ccc(O)cc4)C(N)=O)[C@@H](C)O)C(C)C)c(=O)c3c2)CC1) [Ac-Ile-Nle-Pqa-Arg-His-Bip-Leu-Asn-Leu-Val-Thr-Arg-Gln-Arg-Tyr-NH2] | > 5000 nM
7 | IKRHYLNLVTRQRY (N-terminal acetyl; Pqa moiety between the two parts; C-terminal amide) [Ac-Ile-Lys-Pqa-Arg-His-Tyr-Leu-Asn-Leu-Val-Thr-Arg-Gln-Arg-Tyr-NH2] | > 5000 nM

Other lines, results leading:

Row | Y4R EC50(nM) FLIPR | Binder
8 | > 5000 nM | IKRHYLNLVTRQRY (N-methyl Lys at PYY position 4 (residue 2 of the first part); Pqa moiety between the two parts; C-terminal amide) [H-Ile-NMeLys-Pqa-Arg-His-Tyr-Leu-Asn-Leu-Val-Thr-Arg-Gln-Arg-Tyr-NH2]
9 | > 5000 nM | IKRHYLNLVTRQRY ((D)His at PYY position 26 (residue 2 of the second part); Pqa moiety between the two parts; C-terminal amide) [H-Ile-Lys-Pqa-Arg-(D)His-Tyr-Leu-Asn-Leu-Val-Thr-Arg-Gln-Arg-Tyr-NH2]
10 | > 5000 nM | IKRHYLNLVTRQRY (N-methyl Ile at PYY position 3 (residue 1 of the first part); Pqa moiety between the two parts; C-terminal amide) [H-NMeIle-Lys-Pqa-Arg-His-Tyr-Leu-Asn-Leu-Val-Thr-Arg-Gln-Arg-Tyr-NH2]
11 | > 5000 nM | IKRHYLNLVTRQRY (N-methyl His at PYY position 26 (residue 2 of the second part); Pqa moiety between the two parts; C-terminal amide) [H-Ile-Lys-Pqa-Arg-(NMe)His-Tyr-Leu-Asn-Leu-Val-Thr-Arg-Gln-Arg-Tyr-NH2]
